{
  "source": "paper PMC10842050",
  "about": "(Journal of molecular biology, 2023)",
  "binders": {"B1": {"name": "P22 portal protein gp1, P26744 1-725 (natural protein)", "chain": "MADNENRLESILSRFDADWTASDEARREAKNDLFFSRVSQWDDWLSQYTTLQYRGQFDVVRPVVRKLVSEMRQNPIDVLYRPKDGARPDAADVLMGMYRTDMRHNTAKIAVNIAVREQIEAGVGAWRLVTDYEDQSPTSNNQVIRREPIHSACSHVIWDSNSKLMDKSDARHCTVIHSMSQNGWEDFAEKYDLDADDIPSFQNPNDWVFPWLTQDTIQIAEFYEVVEKKETAFIYQDPVTGEPVSYFKRDIKDVIDDLADSGFIKIAERQIKRRRVYKSIITCTAVLKDKQLIAGEHIPIVPVFGEWGFVEDKEVYEGVVRLTKDGQRLRNMIMSFNADIVARTPKKKPFFWPEQIAGFEHMYDGNDDYPYYLLNRTDENSGDLPTQPLAYYENPEVPQANAYMLEAATSAVKEVATLGVDTEAVNGGQVAFDTVNQLNMRADLETYVFQDNLATAMRRDGEIYQSIVNDIYDVPRNVTITLEDGSEKDVQLMAEVVDLATGEKQVLNDIRGRYECYTDVGPSFQSMKQQNRAEILELLGKTPQGTPEYQLLLLQYFTLLDGKGVEMMRDYANKQLIQMGVKKPETPEEQQWLVEAQQAKQGQQDPAMVQAQGVLLQGQAELAKAQNQTLSLQIDAAKVEAQNQLNAARIAEIFNNMDLSKQSEFREFLKTVASFQQDRSEDARANAELLLKGDEQTHKQRMDIANILQSQRQNQPSGSVAETPQ"}, "B2": {"name": "P22 head-to-tail adapter gp4 (natural protein, bacteriophage P22)", "chain": "MQIKTKGDLVRAALRKLGVASDATLTDVEPQSMQDAVDDLEAMMAEWYQDGKGIITGYVFSDDENPPAEGDDHGLRSSAVSAVFHNLACRIAPDYALEATAKIIATAKYGKELLYKQTAISRAKRAPYPSRMPTGSGNSFANLNEWHYFPGEQNADSTTPHDEGNG"}, "B3": {"name": "P22 tail needle gp26 (natural protein, bacteriophage P22)", "chain": "MADPSLNNPVVIQATRLDASILPRNVFSKSYLLYVIAQGTDVGAIAGKANEAGQGAYDAQVKNDEQDVELADHEARIKQLRIDVDDHESRITANTKAITALNVRVTTAEGEIASLQTNVSALDGRVTTAENNISALQADYVSKTATTSQSLASPLNVTTSYSVGGKKVLGARQTGWTAATGTANKGVFDADLTFAVSDTYTQSEIQAIANALITERRRTKALEDALRAHGLID"}},
  "key": {"[1]": {"molecular_target": "T1, P22 portal protein gp1 (bacteriophage P22), P26744", "T1 chain": "B1 chain", "assay": "cryo-EM structure", "conditions": "remark: other sources report otherwise"}, "cryo-EM structure": {"molecular_target": "the molecule itself", "assay": "cryo-EM structure"}},
  "data": [
    {"binder": "B1", "values": [
      {"measurement": "stoichiometry N", "setting": "[1]", "result": 12}
    ]},
    {"binder": "B2", "values": [
      {"measurement": "stoichiometry N", "setting": "cryo-EM structure", "result": 12}
    ]},
    {"binder": "B3", "values": [
      {"measurement": "stoichiometry N", "setting": "cryo-EM structure", "result": 3}
    ]}
  ]
}
